{"source": "the supplement of paper PMC9112550", "about": "“Optimization of the antimicrobial peptide Bac7 by deep mutational scanning” (BMC Biology, 2022);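 further: peptides expressed intracellularly from a pBAD plasmid library in pooled LB shake-flask culture, induced with 0.3% L-arabinose, DNA abundance read by NGS, three biological replicates, DESeq2 with apeglm shrinkage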", "data": [{"system": "Escherichia coli TOP10", "test": "shrunken log2 fold change of peptide-encoding DNA abundance (4.5 h post-induction vs induction); higher = less antimicrobial activity (less host growth inhibition)", "details": "time post-induction: 4.5 h; library: site-saturation at positions 5, 18, 19, 20", "values": [{"sequence": "RRIRVRPPRLPRPRPRPDLPPRP", "shrunken log2 fold change": -0.377}, {"sequence": "RRIRYRPPRLPRPRPRPYPCPRP", "shrunken log2 fold change": -0.268}, {"sequence": "RRIRGRPPRLPRPRPRPDILPRP", "shrunken log2 fold change": 0.785}, {"sequence": "RRIRERPPRLPRPRPRPMMWPRP", "shrunken log2 fold change": 0.3}, {"sequence": "RRIRWRPPRLPRPRPRPYKVPRP", "shrunken log2 fold change": -0.482}, {"sequence": "RRIRTRPPRLPRPRPRPWDCPRP", "shrunken log2 fold change": -0.000687}, {"sequence": "RRIRVRPPRLPRPRPRPLKVPRP", "shrunken log2 fold change": -0.136}, {"sequence": "RRIRARPPRLPRPRPRPVVRPRP", "shrunken log2 fold change": 0.481}, {"sequence": "RRIRDRPPRLPRPRPRPFIWPRP", "shrunken log2 fold change": 0.293}, {"sequence": "RRIRNRPPRLPRPRPRPLHCPRP", "shrunken log2 fold change": -0.168}, {"sequence": "RRIRKRPPRLPRPRPRPCTLPRP", "shrunken log2 fold change": 0.0143}, {"sequence": "RRIRLRPPRLPRPRPRPDDPPRP", "shrunken log2 fold change": 0.00153}, {"sequence": "RRIRKRPPRLPRPRPRPFDFPRP", "shrunken log2 fold change": 0.0615}, {"sequence": "RRIRHRPPRLPRPRPRPAHPPRP", "shrunken log2 fold change": 0.175}, {"sequence": "RRIRGRPPRLPRPRPRPPIGPRP", "shrunken log2 fold change": 0.735}, {"sequence": "RRIRKRPPRLPRPRPRPENNPRP", "shrunken log2 fold change": 0.179}, {"sequence": "RRIRLRPPRLPRPRPRPTFNPRP", "shrunken log2 fold change": -0.289}, {"sequence": "RRIRQRPPRLPRPRPRPEMHPRP", "shrunken log2 fold change": 0.393}, {"sequence": "RRIRLRPPRLPRPRPRPANEPRP", "shrunken log2 fold change": 0.0458}, {"sequence": "RRIRFRPPRLPRPRPRPYVHPRP", "shrunken log2 fold change": -1.75}, {"sequence": "RRIRWRPPRLPRPRPRPKSVPRP", "shrunken log2 fold change": -0.0882}, {"sequence": "RRIRKRPPRLPRPRPRPIHLPRP", "shrunken log2 fold change": -0.0911}, {"sequence": "RRIRTRPPRLPRPRPRPMPQPRP", "shrunken log2 fold change": -0.134}, {"sequence": "RRIRCRPPRLPRPRPRPFDHPRP", "shrunken log2 fold change": 0.0529}, {"sequence": "RRIRDRPPRLPRPRPRPAPLPRP", "shrunken log2 fold change": 0.445}, {"sequence": "RRIRPRPPRLPRPRPRPYVHPRP", "shrunken log2 fold change": -0.356}, {"sequence": "RRIRMRPPRLPRPRPRPCVTPRP", "shrunken log2 fold change": 0.0301}, {"sequence": "RRIRCRPPRLPRPRPRPNRWPRP", "shrunken log2 fold change": 0.0409}, {"sequence": "RRIRTRPPRLPRPRPRPTADPRP", "shrunken log2 fold change": 0.351}, {"sequence": "RRIRIRPPRLPRPRPRPRIDPRP", "shrunken log2 fold change": -0.0642}, {"sequence": "RRIRVRPPRLPRPRPRPGNNPRP", "shrunken log2 fold change": -0.249}, {"sequence": "RRIRYRPPRLPRPRPRPGKRPRP", "shrunken log2 fold change": -0.0167}, {"sequence": "RRIRVRPPRLPRPRPRPPSRPRP", "shrunken log2 fold change": 0.743}, {"sequence": "RRIRERPPRLPRPRPRPGLEPRP", "shrunken log2 fold change": -0.114}, {"sequence": "RRIRCRPPRLPRPRPRPDVQPRP", "shrunken log2 fold change": 0.0161}, {"sequence": "RRIRCRPPRLPRPRPRPHVQPRP", "shrunken log2 fold change": -0.224}, {"sequence": "RRIRHRPPRLPRPRPRPMGKPRP", "shrunken log2 fold change": -0.189}, {"sequence": "RRIRYRPPRLPRPRPRPDMNPRP", "shrunken log2 fold change": 0.00911}, {"sequence": "RRIRWRPPRLPRPRPRPLTMPRP", "shrunken log2 fold change": 0.0382}, {"sequence": "RRIRNRPPRLPRPRPRPCYFPRP", "shrunken log2 fold change": -0.408}, {"sequence": "RRIRVRPPRLPRPRPRPRGDPRP", "shrunken log2 fold change": 0.754}, {"sequence": "RRIRTRPPRLPRPRPRPQGDPRP", "shrunken log2 fold change": -0.0192}, {"sequence": "RRIRFRPPRLPRPRPRPTVEPRP", "shrunken log2 fold change": 0.0624}, {"sequence": "RRIRMRPPRLPRPRPRPDKGPRP", "shrunken log2 fold change": -0.0141}, {"sequence": "RRIRFRPPRLPRPRPRPCVAPRP", "shrunken log2 fold change": -0.201}, {"sequence": "RRIRIRPPRLPRPRPRPLHNPRP", "shrunken log2 fold change": -0.563}, {"sequence": "RRIRVRPPRLPRPRPRPKEYPRP", "shrunken log2 fold change": -0.282}, {"sequence": "RRIRQRPPRLPRPRPRPEAFPRP", "shrunken log2 fold change": 0.127}, {"sequence": "RRIRQRPPRLPRPRPRPSWAPRP", "shrunken log2 fold change": -0.0374}, {"sequence": "RRIRIRPPRLPRPRPRPYKHPRP", "shrunken log2 fold change": -1.57}, {"sequence": "RRIRFRPPRLPRPRPRPRKPPRP", "shrunken log2 fold change": 0.428}, {"sequence": "RRIRSRPPRLPRPRPRPDRQPRP", "shrunken log2 fold change": -0.0702}, {"sequence": "RRIRHRPPRLPRPRPRPHKKPRP", "shrunken log2 fold change": -0.0741}, {"sequence": "RRIRVRPPRLPRPRPRPQAGPRP", "shrunken log2 fold change": 0.0465}, {"sequence": "RRIRYRPPRLPRPRPRPAKAPRP", "shrunken log2 fold change": 0.0797}, {"sequence": "RRIRSRPPRLPRPRPRPHVSPRP", "shrunken log2 fold change": -0.0482}, {"sequence": "RRIRSRPPRLPRPRPRPVLWPRP", "shrunken log2 fold change": 0.657}, {"sequence": "RRIRVRPPRLPRPRPRPMKDPRP", "shrunken log2 fold change": -0.109}, {"sequence": "RRIRFRPPRLPRPRPRPTNFPRP", "shrunken log2 fold change": -0.0824}, {"sequence": "RRIRVRPPRLPRPRPRPQFYPRP", "shrunken log2 fold change": -0.806}]}]}
